Reference: patent US20220155314A1 (ACADEMIA SINICA, published 2022)

Molecular target: T1, HA-GCM1 (UniProt Q9NP62 1-436)
T1 construct: Expressed in transfected 293T or Hep3B cells; also called glial cells missing 1; pHA-GCM1; not shown: N-terminal HA tag
T1 sequence (looked up): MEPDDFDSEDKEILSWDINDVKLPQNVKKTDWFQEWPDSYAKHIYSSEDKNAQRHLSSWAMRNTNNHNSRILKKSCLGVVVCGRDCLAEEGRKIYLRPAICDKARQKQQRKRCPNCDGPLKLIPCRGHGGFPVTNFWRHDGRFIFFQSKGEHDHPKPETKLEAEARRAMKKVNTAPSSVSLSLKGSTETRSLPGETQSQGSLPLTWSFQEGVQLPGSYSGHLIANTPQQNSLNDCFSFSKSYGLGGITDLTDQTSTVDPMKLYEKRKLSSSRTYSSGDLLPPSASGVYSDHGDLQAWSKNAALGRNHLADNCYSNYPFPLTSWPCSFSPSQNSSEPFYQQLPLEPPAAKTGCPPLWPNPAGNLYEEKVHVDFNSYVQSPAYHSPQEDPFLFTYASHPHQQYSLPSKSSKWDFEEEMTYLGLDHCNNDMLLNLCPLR
Assay: co-immunoprecipitation with HA and FLAG mAbs in transfected 293T cells
From the text: 293T cells were transfected with different combinations of pΔNp63α-FLAG, pOVOL1-FLAG, and pHA-GCM1 for co-immunoprecipitation analysis with HA and FLAG mAbs. […] 293T cells were transfected with pHA-GCM1 and different pΔNp63α-FLAG plasmids encoding full-length or deletion mutant ΔNp63α-FLAG proteins, followed by co-immunoprecipitation analysis with HA and FLAG mAbs. Schematic representation of functional domains in ΔNp63α is presented. DBD: DNA-binding domain; OD: oligomerization domain; SAM: sterile alpha motif; TID: transactivation inhibitory domain. In a separate experiment, 293T cells were transfected with pΔNp63α-HA and pGAL4-FLAG or different pGAL4-GCM1-FLAG plasmids encoding full-length or deletion mutant GAL4GCM1-FLAG proteins for co-immunoprecipitation analysis with HA and FLAG mAbs. Schematic representation of functional domains in GCM1 is presented. TAD: transactivation domain. […] Glutathione-conjugated agarose beads pre-bound with GST, GST-SAM or GST-OD were incubated with recombinant GCM1-FLAG protein in pull-down assays. […] Mock and ΔNp63α-FLAG-expressing BeWo cells were subjected to immunoblotting (left) and quantitative RT-PCR (right) analyses of GCM1, HTRA4, and hCGβ proteins and transcripts. […] BeWo cells stably expressing scramble or GCM1 shRNA were subjected to immunoblotting (left) and quantitative RT-PCR (right) analyses of GCM1 and ΔNp63α proteins and transcripts.

B1: OVOL1-FLAG (other, human, UniProt O14753 1-267, looked up)
chain: MPRAFLVKKPCVSTCKRNWSELPDEERGEIYVPVSLGFCPPQPYREPEPSVAEPPSCPLALNMSLRDSSYSMAPGPCVVAQLPSEDMGHLTDPQSRDHGFLRTKMKVTLGDSPSGDLFTCRVCQKAFTYQRMLNRHMKCHNDVKRHLCTYCGKGFNDTFDLKRHVRTHTGVRPYKCSLCDKAFTQRCSLESHLKKIHGVQQKYAYKERRAKLYVCEECGCTSESQEGHVLHLKEHHPDSPLLRKTSKKVAVALQNTVTSLLQGSPHL
notes: also called pOVOL1-FLAG; pOVOL-1-FLAG; not shown: C-terminal FLAG tag
  binding result: no binding
